Assay results published in PMC6214142, “Transcription of the Human 5-Hydroxytryptamine Receptor 2B (HTR2B) Gene Is under the Regulatory Influence of the Transcription Factors NFI and RUNX1 in Human Uveal Melanoma”.

Assays:
NFIX = NFIX (Homo sapiens, UniProt Q14938 1-502); test: EMSA; EMSA: 10 mM Hepes pH 7.9, 10% glycerol, 0.1 mM EDTA, 0.5 mM DTT, 0.25 mM PMSF, 50 mM KCl, 2 ug poly(dI:dC); Tris-glycine gels at 4 C; footprinting binding 5 min
NFIA = NFIA (Homo sapiens, UniProt Q12857 1-509); test: EMSA; EMSA: 10 mM Hepes pH 7.9, 10% glycerol, 0.1 mM EDTA, 0.5 mM DTT, 0.25 mM PMSF, 50 mM KCl, 2 ug poly(dI:dC); Tris-glycine gels at 4 C; footprinting binding 5 min at room temperature with 5 ug poly(dI:dC); conditions: protein: recombinant; chain copies: 2; label: 5' 32P as probe; blunt
NFIC = NFIC (Homo sapiens, UniProt P08651 1-508); test: as above; conditions: protein: recombinant; chain copies: 2; label: 5' 32P as probe; blunt
NFIB = NFIB (Homo sapiens, UniProt O00712 1-420); test: as above; conditions: protein: recombinant; chain copies: 2; label: 5' 32P as probe; blunt

Measured: binding result

NFIA, sequence (Q12857 whole entry): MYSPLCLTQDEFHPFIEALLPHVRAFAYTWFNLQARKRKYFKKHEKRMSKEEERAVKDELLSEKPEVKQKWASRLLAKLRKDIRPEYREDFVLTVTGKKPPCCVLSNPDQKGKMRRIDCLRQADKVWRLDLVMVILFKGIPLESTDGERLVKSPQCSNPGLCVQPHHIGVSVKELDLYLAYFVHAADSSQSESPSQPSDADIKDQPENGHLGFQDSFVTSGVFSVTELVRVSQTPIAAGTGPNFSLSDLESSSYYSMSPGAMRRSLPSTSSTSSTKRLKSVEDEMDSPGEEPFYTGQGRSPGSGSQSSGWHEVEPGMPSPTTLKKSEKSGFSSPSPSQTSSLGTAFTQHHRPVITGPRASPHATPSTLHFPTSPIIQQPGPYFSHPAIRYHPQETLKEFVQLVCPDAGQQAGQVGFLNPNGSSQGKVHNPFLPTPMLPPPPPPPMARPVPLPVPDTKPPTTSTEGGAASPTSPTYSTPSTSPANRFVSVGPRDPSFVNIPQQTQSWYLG
NFIC, sequence (P08651 whole entry): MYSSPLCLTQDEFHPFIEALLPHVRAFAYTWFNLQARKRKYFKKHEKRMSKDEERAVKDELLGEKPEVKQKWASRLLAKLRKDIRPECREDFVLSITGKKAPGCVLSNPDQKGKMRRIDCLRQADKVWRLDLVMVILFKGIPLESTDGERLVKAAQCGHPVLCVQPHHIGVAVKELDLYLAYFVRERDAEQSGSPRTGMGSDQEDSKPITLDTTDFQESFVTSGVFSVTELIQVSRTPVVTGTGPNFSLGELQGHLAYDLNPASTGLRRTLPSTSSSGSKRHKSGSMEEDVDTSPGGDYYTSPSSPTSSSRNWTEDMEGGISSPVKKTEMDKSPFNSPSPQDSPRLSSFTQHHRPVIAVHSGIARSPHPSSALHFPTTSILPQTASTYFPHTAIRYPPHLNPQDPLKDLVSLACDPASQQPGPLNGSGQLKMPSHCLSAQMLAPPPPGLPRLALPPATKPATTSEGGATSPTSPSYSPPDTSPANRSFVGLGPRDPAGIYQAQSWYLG

B1: NFI high affinity probe (dsDNA)
DNA 1: TTATTTTGGATTGAAGCCAATATGAG
DNA 2: CTCATATTGGCTTCAATCCAAAATAA
binds: all assays above
